Target: the molecule itself
Assay: solution 2D 1H-1H NOESY NMR, 20 mM peptide
Protocol: NMR: All solution state NMR experiments were carried out on a Bruker 700 MHz spectrometer equipped with a cryoprobe. NMR data were processed with TOPSPIN (Bruker), then analysed using Sparky (W. Lee et al. Bioinfo. 2015, 31, 1325) programs. 0.5 mM or 20 mM GV8 peptides were dissolved in water, pH 6.8 with 10% D₂O for deuterium lock and DSS for signal reference. Two dimensional (2D)¹H-¹H TOCSY and NOESY spectra were acquired with 80 ms and 200 ms mixing times, respectively. In order to monitor hydrogel formation, 1D ¹H spectrum and a series of 2D ¹H-¹H NOESY spectra were recorded every four hours for 20 hours using the 20 mM peptide solution. For H/D exchange experiments, 0.5 mM and 20 mM peptide samples were dissolved in 100% D₂O and 2D ¹H-¹H TOCSY spectra were recorded at 30 min intervals. The extrinsic exchange rates were obtained by fitting the peak intensity vs. time to a single-exponential decay equation. The protection factor were calculated as the ratio of intrinsic exchange rates (calculated from SPHERE (Bai et al. Proteins. 1993, 17, 75)) to the extrinsic exchange rates. […] Amide temperature coefficients were also determined by recording 1D ¹H spectra of 0.5 mM and 20 mM GV8 peptide at 298 K, 303 K, 308 K and 313 K. Amide proton chemical shift deviations were fitted linearly against temperature and the temperature coefficients were calculated as σδHN/ΔT (ppb K⁻¹).

B1: Ac-GLYGGYGV-NH2 (GV8) peptide (peptide)
peptide: Ac-GLYGGYGV-NH2
notes: Synthetic 8-residue peptide, a repeat derived from suckerin-19; It is entered only for its self-association (dimer or oligomer in solution at 20 mM, antiparallel beta-sheets in the hydrogel); For the ssNMR experiments the peptide was uniformly 13C-15N labelled
B1: binds.
